The values that follow come from PMC12753876, “The CRY1-HsF predicted interaction interface serves as a molecular platform for bioengineering or selecting modulating mutants” (Frontiers in Plant Science, 2025).

Assay in all cases: two-hybrid; CRY1 as prey in pGADT7 (AD), HsF as bait in pGBKT7 (BD), co-transformed into yeast Y187; liquid beta-galactosidase assay with CPRG, Miller units; not detected (ND) if OD578 <0.01 after 3 h of color development
Details in all cases: partners not purified

Assay [1] has as its target T1, HsFA3^K177A in pGBKT7 (BD) (Arabidopsis thaliana, UniProt Q8GYY1 1-412, K177A).
T1 construct: source: yeast two-hybrid fusion (yeast Y187)

Assay [2] deals with T2, HsFA6b^WT in pGBKT7 (BD) (Arabidopsis thaliana, UniProt Q9LUH8 1-406).
T2 construct: source: yeast two-hybrid fusion (yeast Y187)

The target of assay [3] is T3, HsFA3^E188A in pGBKT7 (BD) (Arabidopsis thaliana, UniProt Q8GYY1 1-412, E188A).
T3 construct: Not in the list of plasmids of the methods; source: yeast two-hybrid fusion (yeast Y187)

The target of assay [4] is T4, HsFC1^R129E in pGBKT7 (BD) (Arabidopsis thaliana, UniProt Q9LV52 1-330, R129E).
T4 construct: source: yeast two-hybrid fusion (yeast Y187)

The target in assay [5] is T5, HsFC1^WT in pGBKT7 (BD) (Arabidopsis thaliana, UniProt Q9LV52 1-330).
T5 construct: source: yeast two-hybrid fusion (yeast Y187)

The target in assay [6] is T6, HsFA3^WT in pGBKT7 (BD) (Arabidopsis thaliana, UniProt Q8GYY1 1-412).
T6 construct: also called AtHsFA3; source: yeast two-hybrid fusion (yeast Y187)

The target in assay [7] is T7, HsFA6a^WT in pGBKT7 (BD) (Arabidopsis thaliana, UniProt Q1PDN3 1-282).
T7 construct: source: yeast two-hybrid fusion (yeast Y187)
T7 sequence (looked up): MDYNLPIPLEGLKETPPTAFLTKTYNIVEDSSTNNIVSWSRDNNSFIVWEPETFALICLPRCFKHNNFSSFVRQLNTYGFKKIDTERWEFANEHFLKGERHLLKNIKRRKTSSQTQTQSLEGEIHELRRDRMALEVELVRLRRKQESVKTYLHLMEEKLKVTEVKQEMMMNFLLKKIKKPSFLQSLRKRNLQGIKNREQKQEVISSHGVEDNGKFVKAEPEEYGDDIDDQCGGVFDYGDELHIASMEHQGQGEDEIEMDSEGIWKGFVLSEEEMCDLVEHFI

The target in assay [8] is T8, HsFA7a in pGBKT7 (BD) (Arabidopsis thaliana, UniProt Q9SV12 1-272).
T8 construct: also called HsFA7^WT; source: yeast two-hybrid fusion (yeast Y187)

The target in assay [9] is T9, HsFA3^K174A in pGBKT7 (BD) (Arabidopsis thaliana, UniProt Q8GYY1 1-412, K174A).
T9 construct: source: yeast two-hybrid fusion (yeast Y187)

Assay [10] addresses T10, HsFA1d^WT in pGBKT7 (BD) (Arabidopsis thaliana, UniProt Q9LQM7 1-485).
T10 construct: source: yeast two-hybrid fusion (yeast Y187)

The target of assay [11] is T11, HsFA3^E173A in pGBKT7 (BD) (Arabidopsis thaliana, UniProt Q8GYY1 1-412, E173A).
T11 construct: source: yeast two-hybrid fusion (yeast Y187)

Assay [12] deals with T12, HsFA3^E178A in pGBKT7 (BD) (Arabidopsis thaliana, UniProt Q8GYY1 1-412, E178A).
T12 construct: source: yeast two-hybrid fusion (yeast Y187)

Numbering of substitutions follows the chain as printed. Names may count otherwise.

T6 sequence (Q8GYY1 whole entry, the tested form may be a part): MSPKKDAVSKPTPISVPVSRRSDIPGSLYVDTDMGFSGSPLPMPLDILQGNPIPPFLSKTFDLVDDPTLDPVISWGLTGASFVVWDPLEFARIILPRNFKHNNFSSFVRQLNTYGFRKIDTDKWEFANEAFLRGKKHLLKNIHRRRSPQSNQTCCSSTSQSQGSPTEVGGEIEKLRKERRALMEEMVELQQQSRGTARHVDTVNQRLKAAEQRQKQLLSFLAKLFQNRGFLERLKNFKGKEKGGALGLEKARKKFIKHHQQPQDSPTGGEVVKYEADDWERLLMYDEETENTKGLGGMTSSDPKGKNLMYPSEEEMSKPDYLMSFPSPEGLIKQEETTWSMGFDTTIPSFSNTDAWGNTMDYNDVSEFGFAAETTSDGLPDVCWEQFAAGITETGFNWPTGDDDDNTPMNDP
T9 sequence (Q8GYY1 whole entry K174A, the tested form may be a part): as the sequence (Q8GYY1 whole entry, the tested form may be a part) above, with K174A counted along it
T10 sequence (Q9LQM7 whole entry, the tested form may be a part): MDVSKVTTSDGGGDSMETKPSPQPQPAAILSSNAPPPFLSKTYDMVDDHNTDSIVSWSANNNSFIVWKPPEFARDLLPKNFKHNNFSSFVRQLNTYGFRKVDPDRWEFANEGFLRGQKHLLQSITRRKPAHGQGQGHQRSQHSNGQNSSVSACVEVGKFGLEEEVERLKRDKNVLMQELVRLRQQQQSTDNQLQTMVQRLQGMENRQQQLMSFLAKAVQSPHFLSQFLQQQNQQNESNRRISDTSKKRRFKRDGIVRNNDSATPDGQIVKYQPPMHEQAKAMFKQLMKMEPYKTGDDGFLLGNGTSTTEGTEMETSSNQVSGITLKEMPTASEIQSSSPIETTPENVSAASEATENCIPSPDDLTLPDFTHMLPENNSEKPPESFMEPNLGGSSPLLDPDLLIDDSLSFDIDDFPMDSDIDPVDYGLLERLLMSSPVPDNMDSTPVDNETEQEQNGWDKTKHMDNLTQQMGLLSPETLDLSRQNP
T8 sequence (Q9SV12 whole entry, the tested form may be a part): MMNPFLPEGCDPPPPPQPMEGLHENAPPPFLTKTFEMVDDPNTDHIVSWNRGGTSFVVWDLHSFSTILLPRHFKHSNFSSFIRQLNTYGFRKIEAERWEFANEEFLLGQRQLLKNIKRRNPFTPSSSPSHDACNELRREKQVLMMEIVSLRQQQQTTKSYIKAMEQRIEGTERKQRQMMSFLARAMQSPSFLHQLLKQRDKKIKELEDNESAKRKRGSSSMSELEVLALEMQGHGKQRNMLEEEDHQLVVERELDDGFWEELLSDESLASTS
T5 sequence (Q9LV52 whole entry, the tested form may be a part): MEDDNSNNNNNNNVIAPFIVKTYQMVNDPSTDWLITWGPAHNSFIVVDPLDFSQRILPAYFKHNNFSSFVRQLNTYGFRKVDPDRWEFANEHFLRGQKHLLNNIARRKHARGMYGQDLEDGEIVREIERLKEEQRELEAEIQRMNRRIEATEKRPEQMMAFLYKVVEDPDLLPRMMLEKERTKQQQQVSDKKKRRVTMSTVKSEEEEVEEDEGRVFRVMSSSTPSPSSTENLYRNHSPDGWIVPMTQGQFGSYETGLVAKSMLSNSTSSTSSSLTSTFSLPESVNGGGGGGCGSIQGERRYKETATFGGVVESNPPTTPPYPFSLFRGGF
T11 sequence (Q8GYY1 whole entry E173A, the tested form may be a part): as the sequence (Q8GYY1 whole entry, the tested form may be a part) above, with E173A counted along it
T2 sequence (Q9LUH8 whole entry, the tested form may be a part): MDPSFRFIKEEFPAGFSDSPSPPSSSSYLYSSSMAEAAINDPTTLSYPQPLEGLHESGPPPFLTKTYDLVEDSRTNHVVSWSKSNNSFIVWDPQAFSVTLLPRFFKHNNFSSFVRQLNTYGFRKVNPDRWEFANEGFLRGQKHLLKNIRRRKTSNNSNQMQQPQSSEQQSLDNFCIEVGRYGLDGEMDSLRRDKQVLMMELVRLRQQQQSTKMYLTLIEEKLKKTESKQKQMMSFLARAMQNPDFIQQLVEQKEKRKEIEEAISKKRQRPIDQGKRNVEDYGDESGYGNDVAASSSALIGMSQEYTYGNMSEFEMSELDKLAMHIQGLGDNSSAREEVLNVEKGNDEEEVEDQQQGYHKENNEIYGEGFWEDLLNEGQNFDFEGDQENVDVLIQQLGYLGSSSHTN
T3 sequence (Q8GYY1 whole entry E188A, the tested form may be a part): as the sequence (Q8GYY1 whole entry, the tested form may be a part) above, with E188A counted along it
T1 sequence (Q8GYY1 whole entry K177A, the tested form may be a part): as the sequence (Q8GYY1 whole entry, the tested form may be a part) above, with K177A counted along it
T4 sequence (Q9LV52 whole entry R129E, the tested form may be a part): as the sequence (Q9LV52 whole entry, the tested form may be a part) above, with R129E counted along it
T12 sequence (Q8GYY1 whole entry E178A, the tested form may be a part): as the sequence (Q8GYY1 whole entry, the tested form may be a part) above, with E178A counted along it

B1: CRY1^(PHR WT) in pGADT7 (AD) (domain or fragment, Arabidopsis thaliana, UniProt Q43125 1-508, looked up)
chain: MSGSVSGCGSGGCSIVWFRRDLRVEDNPALAAAVRAGPVIALFVWAPEEEGHYHPGRVSRWWLKNSLAQLDSSLRSLGTCLITKRSTDSVASLLDVVKSTGASQIFFNHLYDPLSLVRDHRAKDVLTAQGIAVRSFNADLLYEPWEVTDELGRPFSMFAAFWERCLSMPYDPESPLLPPKKIISGDVSKCVADPLVFEDDSEKGSNALLARAWSPGWSNGDKALTTFINGPLLEYSKNRRKADSATTSFLSPHLHFGEVSVRKVFHLVRIKQVAWANEGNEAGEESVNLFLKSIGLREYSRYISFNHPYSHERPLLGHLKFFPWAVDENYFKAWRQGRTGYPLVDAGMRELWATGWLHDRIRVVVSSFFVKVLQLPWRWGMKYFWDTLLDADLESDALGWQYITGTLPDSREFDRIDNPQFEGYKFDPNGEYVRRWLPELSRLPTDWIHHPWNAPESVLQAAGIELGSNYPLPIVGLDEAKARLHEALSQMWQLEAASRAAIENGSEE
notes: cryptochrome 1 (AtCRY1), Arabidopsis thaliana, PHR domain, residues 1-508; also called CRY1 PHR domain; source: yeast two-hybrid fusion (yeast Y187)
Regarding B1, the “decrease of Y2H interaction relative to WT” value in assay [1] is 62%; in assay [3], 61%; in assay [9], 64%; in [11], 29%. Also, the “beta-galactosidase activity (Miller units)” value was 45 Miller units in assay [2]; under 0.5 Miller units in assay [5]; 250 Miller units in [6]; under 0.5 Miller units in assay [7]; 25 Miller units in [8]; 7 Miller units in assay [10]. Also, in [4], the “fold increase of Y2H interaction relative to WT” value was about 10 fold. In addition, the “fold change of Miller units relative to WT” value in [12] was found to be 2 fold.

B2: CRY1^(PHR R211A) in pGADT7 (AD) (domain or fragment, Arabidopsis thaliana, UniProt Q43125 1-508, looked up)
chain: B1 chain with R211A
notes: cryptochrome 1 (AtCRY1), Arabidopsis thaliana, PHR domain, residues 1-508; also called CRY1^R211A; source: yeast two-hybrid fusion (yeast Y187)
Regarding B2, the “increase of Miller units relative to WT” value in assay [6] was 27%.

B3: CRY1^(PHR K332A) in pGADT7 (AD) (domain or fragment, Arabidopsis thaliana, UniProt Q43125 1-508, looked up)
chain: B1 chain with K332A
notes: cryptochrome 1 (AtCRY1), Arabidopsis thaliana, PHR domain, residues 1-508; source: yeast two-hybrid fusion (yeast Y187)
Take B3: the “decrease of Y2H interaction relative to WT” value in assay [6] was found to be 56%.

B4: CRY1^(PHR R435A) in pGADT7 (AD) (domain or fragment, Arabidopsis thaliana, UniProt Q43125 1-508, looked up)
chain: B1 chain with R435A
notes: cryptochrome 1 (AtCRY1), Arabidopsis thaliana, PHR domain, residues 1-508; also called CRY1^R435A; source: yeast two-hybrid fusion (yeast Y187)
As for B4, in assay [6], the “decrease of Y2H interaction relative to WT” value stood at 12%.

B5: CRY1^(PHR W352A) in pGADT7 (AD) (domain or fragment, Arabidopsis thaliana, UniProt Q43125 1-508, looked up)
chain: B1 chain with W352A
notes: cryptochrome 1 (AtCRY1), Arabidopsis thaliana, PHR domain, residues 1-508; also called CRY1^W352A; source: yeast two-hybrid fusion (yeast Y187)
In the case of B5, the “decrease of Y2H interaction relative to WT” value in assay [6] was found to be 51%.

B6: CRY1^(PHR R335A) in pGADT7 (AD) (domain or fragment, Arabidopsis thaliana, UniProt Q43125 1-508, looked up)
chain: B1 chain with R335A
notes: as for B3
For B6, the “decrease of Y2H interaction relative to WT” value in assay [6] was 41%.
